Patent US20030158083A1, “Method of effecting angiogenesis by modulating the function of a novel endothelia phosphatase” (The Procter & Gamble Company, priority 2002, published 2003)

How the values were obtained:
[1] = Phosphatase activity with fluorogenic substrate DiFMUP; assay type: biochemical
Description: Purified, recombinant KAPh phosphatase domain (amino acids 83-464 SEQ ID NO 4) (100 μg/mL) and full-length PTEN (amino acids 1-403) (100 μg/mL) were each mixed with a fluorogenic phosphatase substrate 6,8-difluoro-4-methylumbelliferyl phosphate (DiFMUP) (Molecular Probes, Eugene, Oreg.) at a final concentration of a 100 μM in assay buffer (10 mM sodium acetate, pH 6.0, 150 mM NaCl, 5 mM DTT). Following incubation at ambient temperature for 15 or 60 min., the fluorescence intensity of the 6,8-difluoro-4-methylumbelliferone (DiFMU) product was measured in triplicate and used as an assessment of phosphatase activity. A Victor 5 microplate reader from Wallac (Turku, Finland) was used to read the fluorescence intensity from 384-well microplates (Corning Inc., Corning, N.Y.).

Tie 2 = assay: GST pull-down association assay, Tie 2; assay type: binding, human; conditions: wild-type and kinase-inactive mutant
Description: (§1) Recombinant VEGFR-1 kinase (wild-type and K862R mutant), VEGFR2 kinase (wild-type and K870R mutant), Tie1 kinase (wild-type and K871R mutant), and Tie2 kinase (wild-type and K856R mutant) were expressed as glutathione S-transferase (GST) fusion proteins in Sf9 cells using a baculovirus expression system. Briefly, the intracellular domain of each receptor tyrosine kinase was generated as an in-frame GST fusion using the pAcGHLT baculovirus transfer vector (Pharmingen, San Diego, Calif.). Each baculovirus transfer vector construct was cotransfected with BaculoGold (Pharmingen, San Diego, Calif.) linearized AcNPV baculovirus DNA into Sf9 cells for the generation of recombinant baculoviruses. Five days post-transfection, recombinant baculoviruses were harvested and amplified by re-infection of Sf9 cells. Each amplified baculovirus was then used to infect Sf9 cells for the expression of the recombinant kinases. […]
(§2) The immobilized, autophosphorylated kinases were then incubated with HEK 293 cell lysates which overexpressed either the KAPh SH2 domain or KAPh full-length protein. […] KAPh protein that associated with the recombinant kinases was analyzed by Western blot using a chemiluminescence detection system (Amersham Pharmacia, Piscataway, N.J.).

[2] = biological target: T1, human VEGFR2 intracellular domain (Homo sapiens, UniProt P35968, K868R); assay: Yeast two-hybrid interaction with intracellular domain of VEGFR2; assay type: binding; conditions: ATP binding site mutated (K870R)
T1 construct: expressed in transfected cells; host or cells: yeast strain MaV203 (pDBLeu-hVEGFR2)
Description: (§3) All two-hybrid plasmid constructs used the pDBLeu and pPC86 yeast expression vectors as a part of the ProQuest Two-Hybrid System (Life Technologies, Rockville, Md.). A cDNA encoding the intracellular domain of human VEGFR2 was generated by PCR from a human VEGFR2/pJFE14 construct, obtained from Regeneron Pharmaceuticals (Tarrytown, N.Y.), and subcloned into the yeast bait vector downstream of the GAL4 DNA-binding domain. A human umbilical vein endothelial cell (HUVEC) cDNA library (in pPC86) was co-transformed with pDBLeu-hVEGFR2 into the MaV203 strain of yeast. Proteins that interacted with the intracellular domain of human VEGFR2 were selected and tested for specificity according to the manufacturer's instructions.
(§4) In an ongoing effort to understand mechanisms by which the biological activity of VEGF is mediated through the VEGF receptor-2 (KDR/Flk-1), we used the entire cytoplasmic domain of KDR as bait to screen human umbilical vein endothelial cell (HUVEC) and human fetal brain cDNA libraries in the yeast two-hybrid system. The intracellular domain of human VEGFR2 (790-1357 SEQ ID NO 8) was constructed in the bait plasmid (pDBLeu) and the cDNA libraries were constructed in the prey plasmid (pPC86). Following transformation of yeast, positive clones were selected by growth on histidine-deficient media and for the expression of β-galactosidase activity (X-gal selection). […]

[3] = biological target: T2, human VEGFR2 intracellular domain (Homo sapiens, UniProt P35968); assay: as above; assay type: binding; conditions: growth on histidine-deficient and uracil-deficient media
T2 construct: expressed in transfected cells; host or cells: yeast strain MaV203 (pDBLeu-hVEGFR2)
Description: as §3, §4

Tie 1 = assay: GST pull-down association assay, Tie 1; assay type: binding, human; conditions: wild-type and kinase-inactive mutant
Description: as §1, §2

T1 sequence (P35968 790-1356 K868R): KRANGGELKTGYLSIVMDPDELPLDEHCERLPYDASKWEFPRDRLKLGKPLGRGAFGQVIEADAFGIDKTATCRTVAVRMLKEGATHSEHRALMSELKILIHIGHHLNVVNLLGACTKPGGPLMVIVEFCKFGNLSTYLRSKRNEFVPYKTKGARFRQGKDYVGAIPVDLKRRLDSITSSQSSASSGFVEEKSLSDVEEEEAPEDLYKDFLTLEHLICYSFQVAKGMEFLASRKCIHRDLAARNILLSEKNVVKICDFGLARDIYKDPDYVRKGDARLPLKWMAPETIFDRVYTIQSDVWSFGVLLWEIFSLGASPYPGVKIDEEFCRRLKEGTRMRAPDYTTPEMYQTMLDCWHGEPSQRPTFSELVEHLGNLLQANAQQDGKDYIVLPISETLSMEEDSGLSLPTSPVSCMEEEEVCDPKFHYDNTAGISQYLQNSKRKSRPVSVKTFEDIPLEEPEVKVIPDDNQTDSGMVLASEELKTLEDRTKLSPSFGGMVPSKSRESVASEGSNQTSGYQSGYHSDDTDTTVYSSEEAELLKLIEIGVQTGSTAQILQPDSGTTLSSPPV
T2 sequence (P35968 790-1356): as the sequence (P35968 790-1356 K868R) above, with R79K counted along it

B1: KAPh: novel human KDR Associated Phosphatase protein, full-length sequence SEQ ID NOS 1 and 2 (protein, listed as Homo sapiens)
chain: MKPRKAEPHSFREKVFRKKPPVCAVCKVTIDGTGVSCRVCKVATHRKCEAKVTSACQALPPVELRRNTAPVRRIEHLGSTKSLNHSKQRSTLPRSFSLDPLMERRWDLDLTYVTERILAAAFPARPDEQRHRGHLRELAHVLQSKHRDKYLLFNLSEKRHDLTRLNPKVQDFGWPELHAPPLDKLCSICKAMETWLSADPQHVVVLYCKGNKGKLGVIVSAYMHYSKISAGADQALATLTMRKFCEDKVATELQPSQRRYISYFSGLLSGSIRMNSSPLFLHYVLIPMLPAFEPGTGFQPFLKIYQSMQLVYTSGVYHIAGPGPQQLCISLEPALLLKGDVMVTCYHKGGRGTDRTLVFRVQFHTCTIHGPQLTFPKDQLDEAWTDERFPFQASVEFVFSSSPEKIKGSTPRNDPSVSVDYNTTEPAVRWDSYENFNQHHEDSVDGSLTHTRGPLDGSPYAQVQRPPRQTPPAPSPEPPPPPMLSVSSDSGHSSTLTTEPAAESPGRPPPTAAERQELDRLLGGCGVASGGRGAGRETAILDDEEQPTVGGGPHLGVYPGHRPGLSRHCSCRQGYREPCGVPNGGYYRPEGTLERRRLAYGGYEGSPQGYAEASMEKRRLCRSLSEGLYPYPPEMGKPATGDFGYRAPGYREVVILEDPGLPALYPCPACEEKLALPTAALYGLRLEREAGEGWASEAGKPLLHPVRPGHPLPLLLPACGHHHAPMPDYSCLKPPKAGEEGHEGCSYTMCPEGRYGHPGYPALVTYSYGGAVPSYCPAYGRVPHSCGSPGEGRGYPSPGAHSPRAGSISPGSPPYPQSRKLSYEIPTEEGGDRYPLPGHLASAGPLASAESLEPVSWREGPSGHSTLPRSPRDAPCSASSELSGPSTPLHTSSPVQGKESTRRQDTRSPTSAPTQRLSPGEALPPVSQAGTGKAPELPSGSGPEPLAPSPVSPTFPPSSPSDWPQERSPGGHSDGASPRSPVPTTLPGLRHAPWQGPRGPPDSPDGSPLTPVPSQMPWLVASPEPPQSSPTPAFPLAASYDTNGLSQPPLPEKRHLPGPGQQPGPWGPEQASSPARGISHHVTFAPLLSDNVPQTPEPPTQESQSNVKFVQDTSKFWYKPHLSRDQAIALLKDKDPGAFLIRDSHSFQGAYGLALKVATPPPSAQPWKGDPVEQLVRHFLIETGPKGVKIKGCPSEPYFGSLSALVSQHSISPISLPCCLRILSKDPLEETPEAPVPTNMSTAADLLRQGAACSVLYLTSVETESLTGPQAVARASSAALSCSPRPTPAVVHFKVSAQGITLTDNQRKLFFRRHYPVNSITFSSTDPQDRRWTNPDGTTSKIFGFVAKKPGSPWENVCHLFAELDPDQPAGAIVTFITKVLLGQRK
Q: With B1 as the molecule, how does the “fluorescent product (DiFMU) generated, fold over buffer control” value ([1]; 100 μg/mL protein, 100 μM DiFMUP, pH 6.0, ambient temperature, 60 min incubation) read?
A: Its value is roughly 10 fold.

Q: What about the “phosphatase activity against DiFMUP relative to PTEN” value ([1]; KAPh versus PTEN) of the same molecule?
A: The value was 1- to 2 fold.

Q: What about the “interaction with GST Tie 2” value (Tie 2) of the same molecule?
A: The value was “no interaction”.

Q: What about the “yeast two-hybrid interaction with KDR K870R mutant” value [2] of the same molecule?
A: The value was “essentially no significant interaction”.

Q: And the “yeast two-hybrid interaction with wild-type KDR” value [3]?
A: The value was “robust protein-protein interaction”.

Q: What about the “interaction with GST Tie 1” value (Tie 1) of the same molecule?
A: Its value is “no interaction”.
